Assay [1] addresses lipidated TF, factor VIIa, factor X (Homo sapiens, UniProt P13726). The assay can be described thus: Factor X activation assay of purified proteins (chromogenic substrate). Type of assay: biochemical. The following applies: peptides at 5 μg/ml and 10 μg/ml; compared to control; FIG. 1A. On the procedure:
FIGS. 1A-1C include vertical bar graphs and thromboelastography (TEG) curves, showing that peptide 16 and peptide 16AC increase coagulation. Peptide 16 and 16AC were studied in an assay of purified proteins that included lipidated TF (4 nM), factor VIIa (40 nM), factor X (1.4 μM) and assay buffer. Factor X activated form (Xa) level was studied using a chromogenic substrate (1 mM). […] Bovine factor Xa diluted in the assay buffer was used to generate a standard curve. Without addition of TF (two right columns), no factor Xa was generated. […] (1B) A citrated pooled normal human blood sample (n=3) was left for 4 hours at room temperature in order to expose TF in bloods cells. Following this period, the peptides 16 and 16AC were added (5 μg/ml) along with calcium. […] Representative TEG curves are shown. (1C) The study presented in FIG. 1B was repeated 3 times with different pooled plasma. […] Peptide 16 (non-modified); peptide 16 comprising a C-terminal amid group (16A); peptide 16 comprising an N-terminal acetyl group (16C); and peptide 16 comprising a C-terminal amid group and an N-terminal acetyl group (16AC). In 1B: for control—SP min=11.2; R min=12.8; K min=3.8, Angle deg=52.0; and MA mm=47.9, for Peptide 16—SP min=5.2; R min=6.4; K min=2.8, Angle deg=63.3; and MA mm=50.4, and for Peptide 16AC—SP min=4.7; R min=5.6; K min=2.5, Angle deg=63.1; and MA mm=53.8.
Peptides 16, 16C, 16A and 16AC were studied in an assay of purified proteins that included lipidated TF (0.004 μM), factor VIIa (0.04 μM), factor X (1.4 μM) and assay buffer. Factor X activated form (Xa) level was studied using a chromogenic substrate (1 mM). […] Bovine factor Xa diluted in the assay buffer was used to generate a standard curve. Without addition of TF (two right columns), no factor Xa was generated.

Assay [2] has as its system Hemophilic mice (VIII-KO mice). The assay can be described thus: Mouse-tail bleeding time model in hemophilic mice. Type of assay: in vivo. The following applies: subcutaneous 150-375 μg/kg; FIG. 3D. On the procedure: FIGS. 3A-3D include vertical bar graphs showing that modified heparanase procoagulant peptides of the invention decrease bleeding in hemophilic mice. Hemophilic mice (VIII-KO mice; C57BL/6 background, strain name B6;129S4-F8tm1Kaz/J) were studied. (3A) Peptides 16 or 16AC were injected subcutaneously at the flank in doses 150, 225, 300, 375 μg/kg. A mouse-tail bleeding time model was performed. The peptides were dissolved in phosphate-buffered saline (PBS). Control (0) group was injected with the vehicle phosphate buffered saline (PBS). (3D) is identical to (3A) with the exception that peptide 16 C […] and peptide 16A […] were also administered in the disclosed doses. In a similar study, the peptides were topically applied on the tail immediately following the incision of the tail at a rate of a drop every 5 seconds (3B). […] Mann-Whitney U test was used. Results represent mean±SD. *p<0.05.
Hemophilic mice (VIII-KO mice; C57BL/6 background, strain name B6;129S4-F8tm1Kaz/J) were studied. Peptides 16 or 16AC were injected sub-cutis at the flank in doses 150, 225, 300, 375 μg/kg. A mouse-tail bleeding time model was performed. The peptides were dissolved in phosphate-buffered saline (PBS). Control (0) group was injected with the vehicle phosphate buffered saline (PBS) (FIGS. 3A and 3D). In a similar study, the peptides were topically applied on the tail immediately following the incision of the tail at a rate of a drop every 5 seconds (FIG. 3B).

Where no end group is shown, it is not given here.

This is an account of results in patent US12686704B2, “Procoagulant peptides and use thereof” (RAMBAM MED-TECH LTD., priority 2021, dated 2026).

lipidated TF, factor VIIa, factor X, sequence (P13726 33-295): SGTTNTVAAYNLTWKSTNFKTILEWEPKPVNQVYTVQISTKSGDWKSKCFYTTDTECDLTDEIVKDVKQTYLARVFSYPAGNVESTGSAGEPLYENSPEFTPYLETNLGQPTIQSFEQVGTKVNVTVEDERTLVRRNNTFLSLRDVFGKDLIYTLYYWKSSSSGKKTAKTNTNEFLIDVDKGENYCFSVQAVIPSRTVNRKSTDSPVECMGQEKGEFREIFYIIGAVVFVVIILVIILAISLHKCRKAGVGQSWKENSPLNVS
lipidated TF, factor VIIa, factor X, sequence (P08709 61-212 partner limits assumed): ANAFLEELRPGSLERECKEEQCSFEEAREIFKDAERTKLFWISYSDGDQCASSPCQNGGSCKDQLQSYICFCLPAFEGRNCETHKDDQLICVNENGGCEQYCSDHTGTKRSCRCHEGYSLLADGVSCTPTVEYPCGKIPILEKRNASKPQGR
lipidated TF, factor VIIa, factor X, sequence (P08709 213-466 partner limits assumed): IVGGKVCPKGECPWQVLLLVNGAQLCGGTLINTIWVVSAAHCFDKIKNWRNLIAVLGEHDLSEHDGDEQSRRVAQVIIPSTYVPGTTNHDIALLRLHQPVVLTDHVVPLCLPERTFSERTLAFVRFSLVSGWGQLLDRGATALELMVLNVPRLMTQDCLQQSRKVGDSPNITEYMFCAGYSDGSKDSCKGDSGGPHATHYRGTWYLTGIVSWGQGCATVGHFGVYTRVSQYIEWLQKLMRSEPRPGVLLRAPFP

Take “GSKRRKLRVYLHCT-amid (GSKRRKLRVYLHCT-NH2) [Peptide 16A, peptide 16 comprising a C-terminal amid group]”: in assay [1], the “activation of factor X (factor Xa level)” value is given as “significantly increased activation of factor X compared to control”. Moreover, the “bleeding time reduction, comparison between peptides” value in assay [2] is “significant better effect to reduce the bleeding time compared to peptide 16 and peptide 16C”. “acetyl-GSKRRKLRVYLHCT (Ac-GSKRRKLRVYLHCT) [Peptide 16C, peptide 16 comprising an N-terminal acetyl group]”: the “activation of factor X (factor Xa level)” value in assay [1] is “significantly increased activation of factor X compared to control”.
